# Source: article PMC12866951 (Cell, 2026)
# B1: PCNA (as used in mass photometry; tag and label not stated) (natural protein, S. cerevisiae, UniProt P15873 1-258, looked up)
# chain: MLEAKFEEASLFKRIIDGFKDCVQLVNFQCKEDGIIAQAVDDSRVLLVSLEIGVEAFQEYRCDHPVTLGMDLTSLSKILRCGNNTDTLTLIADNTPDSIILLFEDTKKDRIAEYSLKLMDIDADFLKIEELQYDSTLSLPSSEFSKIVRDLSQLSDSINIMITKETIKFVADGDIGSGSVIIKPFVDMEHPETSIKLEMDQPVDLTFGAKYLLDIIKGSSLSDRVGIRLSSEAPALFQFDLKSGFLQFFLAPKFNDEE
# B2: LD655-PCNA (S. cerevisiae 3X FLAG-S6-tagged PCNA labeled with LD655) (natural protein, UniProt P15873 1-258, looked up)
# chain: B1 chain
# modifications: LD655 (from LD655-CoA, by SFP synthase) on the single serine residue of the S6 tag
# Legend:
# [1] = biological target: T1, S.c. Rad27 (Fen1) flap endonuclease with a 6xHis tag at the C-terminus (S. cerevisiae, UniProt P26793 1-382); experiment: mass photometry
# T1 sequence (looked up): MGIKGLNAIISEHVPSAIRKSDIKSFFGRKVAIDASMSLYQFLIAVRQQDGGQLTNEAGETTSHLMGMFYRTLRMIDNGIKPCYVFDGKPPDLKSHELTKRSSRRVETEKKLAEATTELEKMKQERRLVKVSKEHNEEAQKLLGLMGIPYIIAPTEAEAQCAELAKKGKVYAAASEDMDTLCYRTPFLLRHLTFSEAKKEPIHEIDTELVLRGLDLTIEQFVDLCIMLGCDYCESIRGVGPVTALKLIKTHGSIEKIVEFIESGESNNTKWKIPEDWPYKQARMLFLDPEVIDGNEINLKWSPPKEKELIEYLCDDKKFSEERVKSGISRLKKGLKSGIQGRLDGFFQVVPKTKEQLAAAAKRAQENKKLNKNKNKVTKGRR
# [2] = biological target: T1, S.c. Rad27 (Fen1) flap endonuclease …; experiment: single-molecule colocalisation on DNA
Binder,binding result [1],binding result [2]
B1,binds,
B2,,binds
